{"source": "patent US20230295336A1", "about": "(INHIBRX, published 2023)", "binders": {"B1": {"name": "cx5067 (bispecific antibody)", "chain 1": "EVQLVESGGGLVQPGGSLRLSCAASGFTFSSFGMHWVRQAPGKGLEWVAYISSDSSAIYYADTVKGRFTISRDNAKNSLYLQMNSLRDEDTAVYYCGRGRENIYYGSRLDYWGQGTTVTVSSASTKGPSVFPLAPSSKSTSGGTAALGCLVKDYFPEPVTVSWNSGALTSGVHTFPAVLQSSGLYSLSSVVTVPSSSLGTQTYICNVNHKPSNTKVDKKVEPKSCDKTHTCPPCPAPPVAGPSVFLFPPKPKDTLMISRTPEVTCVVVDVKHEDPEVKFNWYVDGVEVHNAKTKPREEEYNSTYRVVSVLTVLHQDWLNGKEYKCKVSNKALPAPIEKTISKAKGQPREPQVYTLPPSREEMTKNQVSLTCDVSGFYPSDIAVEWESDGQPENNYKTTPPVLDSDGSFFLYSKLTVDKSRWEQGDVFSCSVMHEALHNHYTQKSLSLSPGKGGGGSGGGGSGGGGSEVQLVESGGGLVQPGGSLRLSCAASGFTFSTYAMNWVRQAPGKGLEWVGRIRSKYNNYATYYADSVKGRFTISRDDSKNTLYLQMNSLRAEDTAVYYCVRHGNFGDSYVSWFAYWGQGTLVTVSS", "chain 2": "EVQLVESGGGLVQPGGSLRLSCAASGFTFSSFGMHWVRQAPGKGLEWVAYISSDSSAIYYADTVKGRFTISRDNAKNSLYLQMNSLRDEDTAVYYCGRGRENIYYGSRLDYWGQGTTVTVSSASTKGPSVFPLAPSSKSTSGGTAALGCLVKDYFPEPVTVSWNSGALTSGVHTFPAVLQSSGLYSLSSVVTVPSSSLGTQTYICNVNHKPSNTKVDKKVEPKSCDKTHTCPPCPAPPVAGPSVFLFPPKPKDTLMISRTPEVTCVVVDVKHEDPEVKFNWYVDGVEVHNAKTKPREEQYNSTYRVVSVLTVLHQDWLNGKEYKCKVSNKALPAPIEKTISKAKGQPREPQVYTLPPSREQMTKNQVKLTCLVKGFYPSDIAVEWESNGQPENNYKTTPPVLDSDGSFFLYSKLTVDKSRWQQGNVFSCSVMHEALHNHYTQKSLSLSPGKGGGGSGGGGSGGGGSQAVVTQEPSLTVSPGGTVTLTCGSSTGAVTTSNYANWVQQKPGKSPRGLIGGTNKRAPGVPARFSGSLLGGKAALTISGAQPEDEADYYCALWYSNHWVFGGGTKLTVL", "light": "DIQLTQSPSFLSASVGDRVTITCKASQNVDTNVAWYQQKPGKAPKALIYSASYRYSGVPSRFSGSGSGTDFTLTISSLQPEDFATYYCQQYNNYPFTFGQGTKLEIKRTVAAPSVFIFPPSDEQLKSGTASVVCLLNNFYPREAKVQWKVDNALQSGNSQESVTEQDSKDSTYSLSSTLTLSKADYEKHKVYACEVTHQGLSSPVTKSFNRGEC", "notes": "Three polypeptides; two identical B7H3 Fab domains; anti-CD3 Fv not disulfide-stabilized; also called MAB-FV; B7H3-targeted constrained CD3 engaging construct (Fab format)"}, "B2": {"name": "cx6083 (bispecific antibody)", "chain 1": "EVQLVESGGGLVQPGGSLRLSCAASGFTFSSFGMHWVRQAPGKGLEWVAYISSDSSAIYYADTVKGRFTISRDNAKNSLYLQMNSLRDEDTAVYYCGRGRENIYYGSRLDYWGQGTTVTVSSASTKGPSVFPLAPSSKSTSGGTAALGCLVKDYFPEPVTVSWNSGALTSGVHTFPAVLQSSGLYSLSSVVTVPSSSLGTQTYICNVNHKPSNTKVDKKVEPKSCDKTHTCPPCPAPPVAGPSVFLFPPKPKDTLMISRTPEVTCVVVDVKHEDPEVKFNWYVDGVEVHNAKTKPREEEYNSTYRVVSVLTVLHQDWLNGKEYKCKVSNKALPAPIEKTISKAKGQPREPQVYTLPPSREEMTKNQVSLTCDVSGFYPSDIAVEWESDGQPENNYKTTPPVLDSDGSFFLYSKLTVDKSRWEQGDVFSCSVMHEALHNHYTQKSLSLSPGKGGGGSGGGGSGGGGSEVQLVESGGGLVQPGGSLRLSCAASGFTFSTYAMNWVRQAPGKCLEWVGRIRSKYNNYATYYADSVKGRFTISRDDSKNTLYLQMNSLRAEDTAVYYCVRHGNFGDSYVSWFAYWGQGTLVTVSS", "chain 2": "EVQLVESGGGLVQPGGSLRLSCAASGFTFSSFGMHWVRQAPGKGLEWVAYISSDSSAIYYADTVKGRFTISRDNAKNSLYLQMNSLRDEDTAVYYCGRGRENIYYGSRLDYWGQGTTVTVSSASTKGPSVFPLAPSSKSTSGGTAALGCLVKDYFPEPVTVSWNSGALTSGVHTFPAVLQSSGLYSLSSVVTVPSSSLGTQTYICNVNHKPSNTKVDKKVEPKSCDKTHTCPPCPAPPVAGPSVFLFPPKPKDTLMISRTPEVTCVVVDVKHEDPEVKFNWYVDGVEVHNAKTKPREEQYNSTYRVVSVLTVLHQDWLNGKEYKCKVSNKALPAPIEKTISKAKGQPREPQVYTLPPSREQMTKNQVKLTCLVKGFYPSDIAVEWESNGQPENNYKTTPPVLDSDGSFFLYSKLTVDKSRWQQGNVFSCSVMHEALHNHYTQKSLSLSPGKGGGGSGGGGSGGGGSQAVVTQEPSLTVSPGGTVTLTCGSSTGAVTTSNYANWVQQKPGKSPRGLIGGTNKRAPGVPARFSGSLLGGKAALTISGAQPEDEADYYCALWYSNHWVFGCGTKLTVL", "light": "DIQLTQSPSFLSASVGDRVTITCKASQNVDTNVAWYQQKPGKAPKALIYSASYRYSGVPSRFSGSGSGTDFTLTISSLQPEDFATYYCQQYNNYPFTFGQGTKLEIKRTVAAPSVFIFPPSDEQLKSGTASVVCLLNNFYPREAKVQWKVDNALQSGNSQESVTEQDSKDSTYSLSSTLTLSKADYEKHKVYACEVTHQGLSSPVTKSFNRGEC", "notes": "Three polypeptides; B7H3 Fab on both Fc chains; anti-CD3 Fv disulfide-stabilized (VH G44C / VL G100C); also called MAB-dsFV; B7H3-targeted constrained CD3 engaging construct (Fab format)"}, "B3": {"name": "cx6081 (bispecific antibody)", "chain 1": "EVQLVESGGGEVQPGGSLRLSCAASGFSFSSNVMMWVRQAPGKGLEWVSTIYSSGTGTFYAESVKGRFTISRDNAKNTLYLQMSSLRPEDTAVYYCATSGPVRGWGPRSQGTLVTVKPPGGGGDKTHTCPPCPAPPVAGPSVFLFPPKPKDTLMISRTPEVTCVVVDVKHEDPEVKFNWYVDGVEVHNAKTKPREEEYNSTYRVVSVLTVLHQDWLNGKEYKCKVSNKALPAPIEKTISKAKGQPREPQVYTLPPSREEMTKNQVSLTCDVSGFYPSDIAVEWESDGQPENNYKTTPPVLDSDGSFFLYSKLTVDKSRWEQGDVFSCSVMHEALHNHYTQKSLSLSPGKGGGGSGGGGSGGGGSEVQLVESGGGLVQPGGSLRLSCAASGFTFNTYAMNWVRQAPGKCLEWVARIRSKYNNYATYYADSVKGRFTISRDDAKNTLYLQMSSLRAEDTAVYYCVRHGNFGNSYVSWFAYWGQGTLVTVKP", "chain 2": "EVQLVESGGGEVQPGGSLRLSCAASGFSFSSNVMMWVRQAPGKGLEWVSTIYSSGTGTFYAESVKGRFTISRDNAKNTLYLQMSSLRPEDTAVYYCATSGPVRGWGPRSQGTLVTVKPPGGGGDKTHTCPPCPAPPVAGPSVFLFPPKPKDTLMISRTPEVTCVVVDVKHEDPEVKFNWYVDGVEVHNAKTKPREEQYNSTYRVVSVLTVLHQDWLNGKEYKCKVSNKALPAPIEKTISKAKGQPREPQVYTLPPSREQMTKNQVKLTCLVKGFYPSDIAVEWESNGQPENNYKTTPPVLDSDGSFFLYSKLTVDKSRWQQGNVFSCSVMHEALHNHYTQKSLSLSPGKGGGGSGGGGSGGGGSQAVVTQEPSLTVSPGGTVTLTCGSSTGAVTTSNYANWVQQKPGQAFRGLIGGTNKRAPGVPARFSGSLLGGKAALTISGAQPEDEADYYCALWYSNHWVFGCGTKLEIK", "notes": "Heterodimer of chain 1 and chain 2; anti-CD3 Fv disulfide-stabilized (VH G44C / VL G100C); two identical B7H3 sdAbs, both N-terminal to the Fc; also called cs6081; B7H3-targeting constrained CD3 engaging construct"}}, "key": {"B7H3 (CD276)": {"biological_target": "T1, B7H3 (CD276) (human, UniProt Q5ZPR3 29-534)", "T1 construct": "whole, on cells", "T1 sequence (looked up)": "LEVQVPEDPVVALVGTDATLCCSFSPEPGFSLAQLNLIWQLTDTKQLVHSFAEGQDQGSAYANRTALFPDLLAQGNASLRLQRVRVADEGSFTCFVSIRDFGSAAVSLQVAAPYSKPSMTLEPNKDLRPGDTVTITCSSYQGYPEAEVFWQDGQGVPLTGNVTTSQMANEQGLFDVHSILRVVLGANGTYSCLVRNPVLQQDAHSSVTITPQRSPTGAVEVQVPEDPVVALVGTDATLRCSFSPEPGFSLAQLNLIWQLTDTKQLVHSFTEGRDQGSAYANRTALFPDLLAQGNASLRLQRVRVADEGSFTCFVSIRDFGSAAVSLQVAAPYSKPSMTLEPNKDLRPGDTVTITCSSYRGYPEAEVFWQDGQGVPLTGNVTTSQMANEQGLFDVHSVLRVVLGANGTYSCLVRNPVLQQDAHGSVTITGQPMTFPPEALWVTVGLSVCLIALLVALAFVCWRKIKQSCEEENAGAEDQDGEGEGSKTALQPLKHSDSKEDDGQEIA", "experiment": "flow cytometry on A375 cells, anti-human Fc secondary", "protocol": "(§1) Binding of exemplary multispecific constructs containing an antigen-binding domain directed against B7H3 were assessed for binding to B7H3 positive A375 tumor cells or primary T-cells. The constructs were generated containing antigen-binding domain(s) that were either sdAbs or a FABs, and that were positioned either only N-terminal to the Fc or both N-terminal to the Fc and C-terminal to the anti-CD3 binding domain (see FIGS. 3A and 3C and Table E1.1). Among the various formats of constructs tested included: sdAb-Fc-dsFV-sdAb (cx3072, cx5952) sdAb-Fc-FV (cx6079), sdAb-Fc-dsFV (cs6080, cx6081), MAB-FV (cx5067) and MAB-dsFV (cx6083, cx6084), where the FV represents the anti-CD3 binding domain composed of VH and VL domain pairs and “ds” notes disulfide stabilized via an engineered interdomain disulfide bond.\n(§2) Binding was assessed as described above via flow cytometry using a fluorophore-conjugated anti-human Fc secondary antibody. cx3072 bound to A375 cells with high affinity (FIG. 6A) but not to isolated T-cells (FIG. 6B). […] The B7H3-targeting sdAb containing constructs (cx5952, cx6079, cx6080, and cx6081) bound to B7H3 positive cells with similar affinities (depicted in FIG. 6E), with cx5952 displaying higher maximal binding. cx6079, cx6080 and cx6081 contain two identical B7H3-targeting sdAbs, whereas cx5952, and cx3072 contain two distinct B7H3-targeting sdAb that bind different epitopes. The MAB-FV, cx5067, contains two identical B7H3-targeting FAB domains."}, "[1]": {"biological_target": "T2, CD3 on the surface of primary T cells (human, UniProt P07766 23-207)", "T2 construct": "whole, on cells; CD3 is a multimeric complex (ε, γ, δ, ζ chains) with the TCR; In the reporter assays CD3 stood on Jurkat cells; also called CD3ε", "T2 sequence (P07766 23-207)": "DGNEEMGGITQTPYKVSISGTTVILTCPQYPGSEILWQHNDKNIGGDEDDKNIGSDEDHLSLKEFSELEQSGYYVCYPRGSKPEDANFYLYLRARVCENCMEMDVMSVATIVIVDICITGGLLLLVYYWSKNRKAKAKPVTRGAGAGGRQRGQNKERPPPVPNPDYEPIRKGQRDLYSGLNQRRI", "experiment": "flow cytometry on isolated primary human T cells", "protocol": "as §1, §2"}}}
{"binder": "B1", "values": [{"measurement": "binding result", "setting": "B7H3 (CD276)", "value": "binds"}, {"measurement": "binding result", "setting": "[1]", "value": "no binding"}]}
{"binder": "B2", "values": [{"measurement": "binding result", "setting": "B7H3 (CD276)", "value": "binds"}, {"measurement": "binding result", "setting": "[1]", "value": "no binding"}]}
{"binder": "B3", "values": [{"measurement": "binding result", "setting": "B7H3 (CD276)", "value": "binds"}, {"measurement": "binding result", "setting": "[1]", "value": "no binding"}]}
